Experimental findings from patent publication US20260201033A1 (LTZ THERAPEUTICS, published 2026) are described below.

The target in test [1] is T1, Human C-type lectin domain family 5 member A (CLEC5A), endogenous on human monocytes and M0 macrophages (human, UniProt Q9NY25 1-188).
T1 construct: Endogenous CLEC5A on primary human monocytes and monocyte-derived M0 macrophages; also called MDL-1; M0 macrophages (CLEC5A+) cells
T1 sequence: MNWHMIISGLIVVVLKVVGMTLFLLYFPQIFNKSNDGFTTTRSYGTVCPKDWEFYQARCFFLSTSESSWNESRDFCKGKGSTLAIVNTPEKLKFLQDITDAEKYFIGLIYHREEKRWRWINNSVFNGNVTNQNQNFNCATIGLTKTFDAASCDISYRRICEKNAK
In words: flow cytometry on human M0 macrophages, anti-human IgG PE. (Flow cytometry measures light scatter and fluorescence of single cells or particles in a stream.)

The next test addresses EGFR on DLD-1 cells (UniProt P00533 25-1210, limits assumed). The experiment in a line: cell-based or functional assay.
The target in test [2] is T2, Human CLEC5A His Tag protein (ACROBiosystems, Cat #: CLA-H5243) (human, UniProt Q9NY25 28-188, limits assumed).
T2 construct: Bought protein with a His tag; also called recombinant human CLEC5A protein
T2 sequence: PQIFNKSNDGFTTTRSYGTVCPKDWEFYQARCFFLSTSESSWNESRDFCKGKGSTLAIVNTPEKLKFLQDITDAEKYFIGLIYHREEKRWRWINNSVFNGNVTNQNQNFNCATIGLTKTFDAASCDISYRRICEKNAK
The experiment in a line: ELISA, plate coated with human CLEC5A. (In general: An ELISA detects its analyte on a solid surface through an enzyme-linked reagent.)

The target in test [3] is T3, human EGFR (ACROBiosystems, Cat #: EGR-H5222) (human, UniProt P00533 25-645).
T3 construct: Bought protein; also called recombinant human EGFR protein
In words: ELISA, plate coated with human EGFR.

Broadly, the EC50 is the concentration giving half of the maximal effect. A low value points to a more potent agent.

B1: EGFR2/5C7 (2+2 A) Fc-optimized (bispecific antibody, human IgG1, kappa)
heavy: QVQLQQSGAEVKKPGSSVKVSCKASGYTFTNYYIYWVRQAPGQGLEWIGGINPTSGGSNFNEKFKTRVTITADESSTTAYMELSSLRSEDTAFYFCTRQGLWFDSDGRGFDFWGQGTTVTVSSASTKGPSVFPLAPSSKSTSGGTAALGCLVKDYFPEPVTVSWNSGALTSGVHTFPAVLQSSGLYSLSSVVTVPSSSLGTQTYICNVNHKPSNTKVDKKVEPKSCDKTHTCPPCPAPELLAGPSVFLFPPKPKDTLMISRTPEVTCVVVDVSHEDPEVKFNWYVDGVEVHNAKTKPREEQYNSTYRVVSVLTVLHQDWLNGKEYKCKVSNKALPLPEEKTISKAKGQPREPQVYTLPPSRDELTKNQVSLTCLVKGFYPSDIAVEWESNGQPENNYKTTPPVLDSDGSFFLYSKLTVDKSRWQQGNVFSCSVMHEALHNHYTQKSLSLSPGK
light: DIQMTQSPSSLSASVGDRVTITCRSSQNIVHSNGNTYLDWYQQTPGKAPKLLIYKVSNRFSGVPSRFSGSGSGTDFTFTISSLQPEDIATYYCFQYSHVPWTFGQGTKLEIKRTVAAPSVFIFPPSDEQLKSGTASVVCLLNNFYPREAKVQWKVDNALQSGNSQESVTEQDSKDSTYSLSSTLTLSKADYEKHKVYACEVTHQGLSSPVTKSFNRGECGGGGSGGGGSGGGGSAIVMTQTPSSKSVPVGDTVTINCQASESVDRNNRLAWFQQKPGQPPKLLIYTTSTLASGVPSRFKGSGSGTHFTLTISDVVPDDAATYYCAGYRGAHTDGDAFGCGTEVVVKGGGGSGGGGSGGGGSGGGGSQSLEESGGDLVKPGASLTLTCTASGFSFSRSSYMCWVRQAPGKCLEWIGCLSVGDGHTYYASWAKGRFTISKTSSTSVTLQMTRLTAADTATYFCARAPSYSGDGGHGYDLWGPGTLVTVSS
notes: also called EGFR/CLEC5A (2+2 A) Fc-optimized antibody with EGFR portion of Nimotuzumab (EGFR2)
In the case of B1, the EC50 was 19.5 nM in test [1], 0.081 µg/mL in test [2] and 0.12 µg/mL in test [3]. Besides, the “IC50 (nM), DLD-1 cell killing by M0 macrophages” value in the test with EGFR on DLD-1 cells came to 0.00471 nM.
